Non-standard residues stand in square brackets, D forms with d. No end group written: not given here. *: point of attachment. Psu = N-propylsuccinimide on Cys S (Cys alkylated with N-propylmaleimide), CCCN1C(=O)CC(*)C1=O; Myristoyl = CCCCCCCCCCCCCC(=O)*; Ac6c = NC1(C(=O)O)CCCCC1; Nle = CCCC[C@H](N)C(=O)O; Orn = NCCC[C@H](N)C(=O)O; Ac5c = NC1(C(=O)O)CCCC1; Aib = CC(C)(N)C(=O)O
T1: human recombinant GIP receptor (human, UniProt P48546 22-466)
T1 construct: whole, on cells; Assayed as washed membrane preparations of CHO-K1 clonal cells expressing the receptor; also called hGIP receptor
T1 sequence (looked up): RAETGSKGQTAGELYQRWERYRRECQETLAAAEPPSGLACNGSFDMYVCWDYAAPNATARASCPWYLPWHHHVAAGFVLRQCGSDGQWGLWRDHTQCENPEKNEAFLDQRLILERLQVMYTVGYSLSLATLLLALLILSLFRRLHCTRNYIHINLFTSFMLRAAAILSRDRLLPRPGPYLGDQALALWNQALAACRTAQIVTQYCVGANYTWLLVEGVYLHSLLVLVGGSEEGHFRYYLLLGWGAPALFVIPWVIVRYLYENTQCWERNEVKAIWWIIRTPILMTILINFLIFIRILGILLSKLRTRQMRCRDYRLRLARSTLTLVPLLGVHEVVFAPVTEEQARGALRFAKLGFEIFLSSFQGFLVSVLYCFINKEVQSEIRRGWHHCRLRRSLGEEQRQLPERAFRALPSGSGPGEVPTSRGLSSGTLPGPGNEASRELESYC

B1: [A5c^11, Lys^43(N-C(O)-(CH2)10-CH3)]hGIP(1-43)-OH (peptide)
peptide: YAEGTFISDYXIAMDKIHQQDFVNWLLAQKGKKNDWKHNITQK
modifications: A5c at 11; Lys(N-C(O)-(CH2)10-CH3) at 43; C-terminal free acid
notes: Synthetic acylated analogue of human GIP
B2: [A5c^11, Orn^32(N-C(O)-(CH2)14-CH3), His^43]hGIP(1-43)-OH (peptide)
peptide: YAEGTFISDYXIAMDKIHQQDFVNWLLAQKGXKNDWKHNITQH
modifications: A5c at 11; Orn(N-C(O)-(CH2)14-CH3) at 32; C-terminal free acid
notes: as for B1
B3: [A5c^11, Orn^33(N-C(O)-(CH2)10-CH3), His^43]hGIP(1-43)-OH (peptide)
peptide: YAEGTFISDYXIAMDKIHQQDFVNWLLAQKGKXNDWKHNITQH
modifications: A5c at 11; Orn(N-C(O)-(CH2)10-CH3) at 33; C-terminal free acid
notes: Synthetic acylated analogue of human GIP with an added His at position 43
B4: [A5c^11,41, Cys^43(succinimide-N-30K PEG)]hGIP(1-43)-NH2 (peptide)
peptide: YAEGTFISDYXIAMDKIHQQDFVNWLLAQKGKKNDWKHNIXQC
modifications: A5c at 11 and 41; Cys(succinimide-N-30K PEG) at 43; C-terminal amide
notes: Synthetic PEGylated analogue of human GIP
B5: (A5c^11, Nle^14, His^43)hGIP(1-43)-OH (peptide)
peptide: YAEGTFISDYXIAXDKIHQQDFVNWLLAQKGKKNDWKHNITQH
modifications: A5c at 11; Nle at 14; C-terminal free acid
notes: Synthetic analogue of human GIP with an added His at position 43
B6: [A5c^11,41, Cys^43(succinimide-N-20K PEG)]hGIP(1-43)-NH2 (peptide)
peptide: YAEGTFISDYXIAMDKIHQQDFVNWLLAQKGKKNDWKHNIXQC
modifications: A5c at 11 and 41; Cys(succinimide-N-20K PEG) at 43; C-terminal amide
notes: as for B4
B7: (Aib^13, Asp^43)hGIP(1-43)-NH2 (peptide)
peptide: YAEGTFISDYSIXMDKIHQQDFVNWLLAQKGKKNDWKHNITQD
modifications: Aib (alpha-aminoisobutyric acid) at 13; C-terminal amide
notes: Synthetic analogue of human GIP with an added Asp at position 43
B8: (A5c^11, 41, Cys^43)hGIP(1-43)-NH2 (peptide)
peptide: YAEGTFISDYXIAMDKIHQQDFVNWLLAQKGKKNDWKHNIXQC
modifications: A5c at 11 and 41; C-terminal amide
notes: Synthetic analogue of human GIP with an added Cys at position 43
B9: [A5c^11, Orn^32(N-C(O)-(CH2)10-CH3), His^43]hGIP(1-43)-OH (peptide)
peptide: YAEGTFISDYXIAMDKIHQQDFVNWLLAQKGXKNDWKHNITQH
modifications: A5c at 11; Orn(N-C(O)-(CH2)10-CH3) at 32; C-terminal free acid
notes: as for B3
B10: [A5c^11, Orn^33(N-C(O)-(CH2)14-CH3), His^43]hGIP(1-43)-OH (peptide)
peptide: YAEGTFISDYXIAMDKIHQQDFVNWLLAQKGKXNDWKHNITQH
modifications: A5c at 11; Orn(N-C(O)-(CH2)14-CH3) at 33; C-terminal free acid
notes: as for B1
B11: [A5c^11, Lys^43(N-C(O)-(CH2)14-CH3)]hGIP(1-43)-OH (peptide)
peptide: YAEGTFISDYXIAMDKIHQQDFVNWLLAQKGKKNDWKHNITQK
modifications: A5c at 11; Lys(N-C(O)-(CH2)14-CH3) at 43; C-terminal free acid
notes: as for B1
B12: (A5c^11, 14, His^43)hGIP(1-43)-OH (peptide)
peptide: YAEGTFISDYXIAXDKIHQQDFVNWLLAQKGKKNDWKHNITQH
modifications: A5c at 11 and 14; C-terminal free acid
notes: as for B5
B13: (A5c^11, His^43)hGIP(1-43)-OH (peptide)
peptide: YAEGTFISDYXIAMDKIHQQDFVNWLLAQKGKKNDWKHNITQH
modifications: A5c at 11; C-terminal free acid
notes: as for B5
B14: (A5c^11, Ala^43)hGIP(1-43)-OH (peptide)
peptide: YAEGTFISDYXIAMDKIHQQDFVNWLLAQKGKKNDWKHNITQA
modifications: A5c at 11; C-terminal free acid
notes: Synthetic analogue of human GIP with an added Ala at position 43
B15: (A5c^11, Asn^43)hGIP(1-43)-OH (peptide)
peptide: YAEGTFISDYXIAMDKIHQQDFVNWLLAQKGKKNDWKHNITQN
modifications: A5c at 11; C-terminal free acid
notes: Synthetic analogue of human GIP with an added Asn at position 43
B16: (A5c^11, Thr^43)hGIP(1-43)-OH (peptide)
peptide: YAEGTFISDYXIAMDKIHQQDFVNWLLAQKGKKNDWKHNITQT
modifications: A5c at 11; C-terminal free acid
notes: Synthetic analogue of human GIP with an added Thr at position 43
B17: (Aib^13, Trp^43)hGIP(1-43)-OH (peptide)
peptide: YAEGTFISDYSIXMDKIHQQDFVNWLLAQKGKKNDWKHNITQW
modifications: Aib at 13; C-terminal free acid
notes: Synthetic analogue of human GIP with an added Trp at position 43
B18: (A6c^11, 14, 41)hGIP(1-42)-OH (peptide)
peptide: YAEGTFISDYXIAXDKIHQQDFVNWLLAQKGKKNDWKHNIXQ
modifications: A6c (1-amino-1-cyclohexanecarboxylic acid) at 11, 14 and 41; C-terminal free acid
notes: Synthetic analogue of human GIP
B19: (A5c^11, 41, Cys^33)hGIP(1-42)-NH2 (peptide)
peptide: YAEGTFISDYXIAMDKIHQQDFVNWLLAQKGKCNDWKHNIXQ
modifications: A5c at 11 and 41; C-terminal amide
notes: Synthetic analogue of human GIP with Cys at position 33
B20: [A5c^11,41, Cys^32(succinimide-N-20K PEG)]hGIP(1-42)-NH2 (peptide)
peptide: YAEGTFISDYXIAMDKIHQQDFVNWLLAQKGCKNDWKHNIXQ
modifications: A5c at 11 and 41; Cys(succinimide-N-20K PEG) at 32; C-terminal amide
notes: as for B4
B21: (A5c^11, 41, Cys^32)hGIP(1-42)-NH2 (peptide)
peptide: YAEGTFISDYXIAMDKIHQQDFVNWLLAQKGCKNDWKHNIXQ
modifications: A5c at 11 and 41; C-terminal amide
notes: Synthetic analogue of human GIP with Cys at position 32
B22: (Aib^13, Nle^14, Phe^43)hGIP(1-43)-OH (peptide)
peptide: YAEGTFISDYSI[Aib][Nle]DKIHQQDFVNWLLAQKGKKNDWKHNITQF-OH
notes: Synthetic analogue of human GIP with an added Phe at position 43
B23: (A5c^11, His^31)hGIP(1-31)-NH2 (peptide)
peptide: YAEGTFISDYXIAMDKIHQQDFVNWLLAQKH
modifications: A5c at 11; C-terminal amide
notes: Synthetic truncated analogue of human GIP with His at position 31
B24: (A5c^11, 14)hGIP(1-30)-NH2 (peptide)
peptide: YAEGTFISDYXIAXDKIHQQDFVNWLLAQK
modifications: A5c at 11 and 14; C-terminal amide
notes: Synthetic truncated analogue of human GIP
B25: (A5c^11)hGIP(1-30)-NH2 (peptide)
peptide: YAEGTFISDYXIAMDKIHQQDFVNWLLAQK
modifications: A5c at 11; C-terminal amide
notes: as for B24

target: T1, human recombinant GIP receptor; assay: displacement of [125I]GIP from membranes of CHO-K1 cells expressing human recombinant GIP receptor

Point of comparison: B13, Ki 0.54 nM. Against it:
- YAEGTF[Ac6c]SDYSIAMDKIHQQDFVNWLLAQKGKKNDWKHNI[Ac6c]Q-OH (Synthetic analogue of human GIP) [(A6c^7, 41)hGIP(1-42)-OH] — 16-fold higher, 8.79 nM
- YAEGTF[Ac6c]SDYSIAMDKIHQQDFVNWLLAQKGKKNDWKHNITC(Psu)-OH (Synthetic analogue of human GIP) [[A6c^7, Cys(Psu)^42]hGIP(1-42)-OH] — 56-fold higher, 30.4 nM
- B1 — 1.5-fold higher, 0.83 nM
- B2 — 77-fold higher, 41.6 nM
- B3 — 17-fold higher, 9.1 nM
- B4 — within 1.5-fold, 0.69 nM
- B5 — within 1.5-fold, 0.72 nM
- YAEGTFISDYXIAMDKIHQQDFVNWLLAQKGKKNDWKHNITQX (A5c at 11; Ado (12-aminododecanoic acid) at 43; C-terminal free acid, Synthetic analogue of human GIP) [(A5c^11, Ado^43)hGIP(1-43)-OH] — 59-fold higher, 31.6 nM
- B6 — within 1.5-fold, 0.7 nM
- B7 — within 1.5-fold, 0.6 nM
- B8 — within 1.5-fold, 0.51 nM
- B9 — 9.8-fold higher, 5.3 nM
- B10 — 49-fold higher, 26.4 nM
- B11 — 2.3-fold higher, 1.25 nM
- B12 — within 1.5-fold, 0.59 nM
- B14 — 6.4-fold higher, 3.43 nM
- B15 — 2.6-fold lower, 0.21 nM
- B16 — 5.8-fold higher, 3.13 nM
- B17 — 5.1-fold higher, 2.76 nM
- B18 — 8.7-fold higher, 4.72 nM
- YAEGTFISDYXIAXDKIHQQDFVNWLLAQKGKKNDWKHNXTQ (A6c at 11, 14 and 40; C-terminal free acid, Synthetic analogue of human GIP) [(A6c^11, 14, 40)hGIP(1-42)-OH] — 2.4-fold higher, 1.3 nM
- YAEGTFISDYXIAMDKIHQQDFVNWLLAQKGKKNDWKHNIXQ (A5c (1-amino-1-cyclopentanecarboxylic acid) at 11 and 41; C-terminal free acid, Synthetic analogue of human GIP) [(A5c^11, 41)hGIP(1-42)-OH] — 4.5-fold lower, 0.12 nM
- YAEGTFISDYSIXMDKIHQQDFVNWLLAQKGKKNDWKHNXTQ (Aib at 13; A5c at 40; C-terminal free acid, Synthetic analogue of human GIP) [(Aib^13, A5c^40)hGIP(1-42)-OH] — 11-fold higher, 5.74 nM
- YAEGTFISDYXIAMDKIHQQDFVNWLLAQKGKKNDWKHNXTQ (A5c at 11 and 40; C-terminal free acid, Synthetic analogue of human GIP) [(A5c^11, 40)hGIP(1-42)-OH] — within 1.5-fold, 0.62 nM
- B19 — 1.9-fold higher, 1.05 nM
- B20 — within 1.5-fold, 0.7 nM
- B21 — 1.7-fold higher, 0.9 nM
- YAEGTF[Ac6c]SDYSIA[Nle]DKIHQQDFVNWLLAQKGKKNDWKHNI[Ac6c]Q-OH (Synthetic analogue of human GIP) [(A6c^7, 41, Nle^14)hGIP(1-42)-OH] — 48-fold higher, 26.1 nM
- B22 — 5.8-fold higher, 3.15 nM
- B23 — within 1.5-fold, 0.44 nM
- YAEGTF[Ac6c]SDYSIAMDKIHQQDFVNWLLAQKGKKN[Orn](Myristoyl)WKHNITQ-OH (Synthetic analogue of human GIP) [[A6c^7, Orn^35(N-C(O)-(CH2)12-CH3)]hGIP(1-42)-OH] — 19-fold higher, 10.3 nM
- YAEGTFISDYSI[Aib][Nle]DKIHQQDFVNWLLAQKGKKNDWKHN[Ac5c]TQ-OH (Synthetic analogue of human GIP) [(Aib^13, Nle^14, A5c^40)hGIP(1-42)-OH] — 2.3-fold lower, 0.23 nM
- B24 — within 1.5-fold, 0.78 nM
- YAEGTF[Ac6c]SDYSIAMDKIHQQDFVNWLLAQK[Orn](Myristoyl)KKNDWKHNITQ-OH (Synthetic analogue of human GIP) [[A6c^7, Orn^31(N-C(O)-(CH2)12-CH3)]hGIP(1-42)-OH] — 34-fold higher, 18.1 nM
- B25 — 1.5-fold higher, 0.82 nM
